± gives the uncertainty stated by the source.

This data set in a line: abundance fitness (aPCA) (normalised: wild type 0, dead -1); higher = more abundant; growth selection in yeast, the domain comes from the species named. The settings on record: Homo sapiens.
Regarding “E3 ubiquitin-protein ligase NEDD4-like E188A, Q96PU5”, the abundance fitness is -0.854 ± 0.29. Under “E3 ubiquitin-protein ligase NEDD4-like E188G, Q96PU5” stands -1.07 ± 0.49.

Substance “E3 ubiquitin-protein ligase NEDD4-like E188L, Q96PU5” had an abundance fitness of -0.459 ± 0.28. Next, “E3 ubiquitin-protein ligase NEDD4-like E188S, Q96PU5”: 0.089 ± 0.22; “E3 ubiquitin-protein ligase NEDD4-like E188V, Q96PU5”: 0.297 ± 0.2. Take “E3 ubiquitin-protein ligase NEDD4-like E189A, Q96PU5”: the abundance fitness is -0.356 ± 0.065. On to “E3 ubiquitin-protein ligase NEDD4-like E189C, Q96PU5”, for which the abundance fitness was -0.176 ± 0.062.

Consider “E3 ubiquitin-protein ligase NEDD4-like E189D, Q96PU5”, for which the abundance fitness was -0.189 ± 0.093.

“E3 ubiquitin-protein ligase NEDD4-like E189G, Q96PU5” registered an abundance fitness of -0.241 ± 0.058.

In turn, “E3 ubiquitin-protein ligase NEDD4-like E189H, Q96PU5” showed an abundance fitness of -0.242 ± 0.13. Under “E3 ubiquitin-protein ligase NEDD4-like E189I, Q96PU5” stands 0.107 ± 0.13; under “E3 ubiquitin-protein ligase NEDD4-like E189K, Q96PU5”, -0.026 ± 0.082. In turn, “E3 ubiquitin-protein ligase NEDD4-like E189L, Q96PU5” displayed an abundance fitness of -0.278 ± 0.065.

Substance “E3 ubiquitin-protein ligase NEDD4-like E189M, Q96PU5” gave an abundance fitness of -0.477 ± 0.081. Under “E3 ubiquitin-protein ligase NEDD4-like E189N, Q96PU5” stands 0.222 ± 0.095; under “E3 ubiquitin-protein ligase NEDD4-like E189P, Q96PU5”, -0.384 ± 0.093; under “E3 ubiquitin-protein ligase NEDD4-like E189Q, Q96PU5”, -0.062 ± 0.097. Next, “E3 ubiquitin-protein ligase NEDD4-like E189R, Q96PU5”: -0.23 ± 0.055. Under “E3 ubiquitin-protein ligase NEDD4-like E189S, Q96PU5” stands -0.136 ± 0.065; under “E3 ubiquitin-protein ligase NEDD4-like E189T, Q96PU5”, -0.087 ± 0.077. “E3 ubiquitin-protein ligase NEDD4-like E189V, Q96PU5” gave an abundance fitness of -0.267 ± 0.069. On to “E3 ubiquitin-protein ligase NEDD4-like E189W, Q96PU5”, for which the abundance fitness is -0.56 ± 0.065. With “E3 ubiquitin-protein ligase NEDD4-like E189Y, Q96PU5”, the abundance fitness is 0.16 ± 0.1. Next, “E3 ubiquitin-protein ligase NEDD4-like E200A, Q96PU5”: -0.105 ± 0.062; “E3 ubiquitin-protein ligase NEDD4-like E200C, Q96PU5”: -0.092 ± 0.08; “E3 ubiquitin-protein ligase NEDD4-like E200D, Q96PU5”: -0.346 ± 0.081. Under “E3 ubiquitin-protein ligase NEDD4-like E200F, Q96PU5” stands -0.328 ± 0.083.

The substance “E3 ubiquitin-protein ligase NEDD4-like E200G, Q96PU5” yielded an abundance fitness of -0.299 ± 0.059. Next, “E3 ubiquitin-protein ligase NEDD4-like E200H, Q96PU5”: -0.721 ± 0.18; “E3 ubiquitin-protein ligase NEDD4-like E200K, Q96PU5”: -0.161 ± 0.062. “E3 ubiquitin-protein ligase NEDD4-like E200L, Q96PU5” came in with an abundance fitness of -0.266 ± 0.08. As for “E3 ubiquitin-protein ligase NEDD4-like E200M, Q96PU5”, the abundance fitness was -0.152 ± 0.074.

Take “E3 ubiquitin-protein ligase NEDD4-like E200N, Q96PU5”: the abundance fitness is -0.471 ± 0.13. In turn, “E3 ubiquitin-protein ligase NEDD4-like E200P, Q96PU5” showed an abundance fitness of -1.29 ± 0.2. Turning to “E3 ubiquitin-protein ligase NEDD4-like E200Q, Q96PU5”, the abundance fitness was -0.072 ± 0.11. “E3 ubiquitin-protein ligase NEDD4-like E200R, Q96PU5” came in with an abundance fitness of -0.31 ± 0.065.

For “E3 ubiquitin-protein ligase NEDD4-like E200S, Q96PU5”, the abundance fitness was -0.166 ± 0.077.

Substance “E3 ubiquitin-protein ligase NEDD4-like E200T, Q96PU5” had an abundance fitness of -0.138 ± 0.081.

As to “E3 ubiquitin-protein ligase NEDD4-like E200V, Q96PU5”, the abundance fitness was -0.179 ± 0.084.

The substance “E3 ubiquitin-protein ligase NEDD4-like E200W, Q96PU5” showed an abundance fitness of -0.603 ± 0.069. Under “E3 ubiquitin-protein ligase NEDD4-like E200Y, Q96PU5” stands -0.357 ± 0.072. Next, “E3 ubiquitin-protein ligase NEDD4-like E201A, Q96PU5”: -0.1 ± 0.066. For the substance “E3 ubiquitin-protein ligase NEDD4-like E201C, Q96PU5”, the abundance fitness is -0.084 ± 0.09. As for “E3 ubiquitin-protein ligase NEDD4-like E201F, Q96PU5”, the abundance fitness was -0.412 ± 0.14.

For the substance “E3 ubiquitin-protein ligase NEDD4-like E201G, Q96PU5”, the abundance fitness was -0.282 ± 0.05. Under “E3 ubiquitin-protein ligase NEDD4-like E201H, Q96PU5” stands -0.223 ± 0.13.

“E3 ubiquitin-protein ligase NEDD4-like E201L, Q96PU5” gave an abundance fitness of -0.257 ± 0.061. Next, “E3 ubiquitin-protein ligase NEDD4-like E201M, Q96PU5”: -0.066 ± 0.11; “E3 ubiquitin-protein ligase NEDD4-like E201N, Q96PU5”: -0.212 ± 0.06.

In turn, “E3 ubiquitin-protein ligase NEDD4-like E201P, Q96PU5” returned an abundance fitness of -0.255 ± 0.091. Next, “E3 ubiquitin-protein ligase NEDD4-like E201Q, Q96PU5”: -0.228 ± 0.12; “E3 ubiquitin-protein ligase NEDD4-like E201R, Q96PU5”: -0.209 ± 0.057; “E3 ubiquitin-protein ligase NEDD4-like E201S, Q96PU5”: -0.124 ± 0.061. “E3 ubiquitin-protein ligase NEDD4-like E201T, Q96PU5” showed an abundance fitness of -0.098 ± 0.1. Turning to “E3 ubiquitin-protein ligase NEDD4-like E201V, Q96PU5”, the abundance fitness was -0.14 ± 0.052.

For the substance “E3 ubiquitin-protein ligase NEDD4-like E201W, Q96PU5”, the abundance fitness was -0.423 ± 0.065. Take “E3 ubiquitin-protein ligase NEDD4-like E201Y, Q96PU5”: the abundance fitness was -0.278 ± 0.056.

The substance “E3 ubiquitin-protein ligase NEDD4-like E232A, Q96PU5” gave an abundance fitness of -0.173 ± 0.11. In turn, “E3 ubiquitin-protein ligase NEDD4-like E232D, Q96PU5” displayed an abundance fitness of -0.354 ± 0.12. Next, “E3 ubiquitin-protein ligase NEDD4-like E232G, Q96PU5”: -0.287 ± 0.12; “E3 ubiquitin-protein ligase NEDD4-like E232H, Q96PU5”: -0.574 ± 0.18. Next, “E3 ubiquitin-protein ligase NEDD4-like E232I, Q96PU5”: -0.5 ± 0.31; “E3 ubiquitin-protein ligase NEDD4-like E232K, Q96PU5”: -1.37 ± 0.43. For the substance “E3 ubiquitin-protein ligase NEDD4-like E232L, Q96PU5”, the abundance fitness was -0.158 ± 0.19. The substance “E3 ubiquitin-protein ligase NEDD4-like E232M, Q96PU5” came in with an abundance fitness of -0.402 ± 0.12. “E3 ubiquitin-protein ligase NEDD4-like E232N, Q96PU5”: the abundance fitness turned out to be 0.022 ± 0.072.

In turn, “E3 ubiquitin-protein ligase NEDD4-like E232P, Q96PU5” yielded an abundance fitness of 0.216 ± 0.17. Next, “E3 ubiquitin-protein ligase NEDD4-like E232R, Q96PU5”: -0.999 ± 0.24.

Consider “E3 ubiquitin-protein ligase NEDD4-like E232V, Q96PU5”, for which the abundance fitness is -0.901 ± 0.18. Next, “E3 ubiquitin-protein ligase NEDD4-like E232W, Q96PU5”: -0.98 ± 0.33; “E3 ubiquitin-protein ligase NEDD4-like E232Y, Q96PU5”: -0.413 ± 0.27; “E3 ubiquitin-protein ligase NEDD4-like G198A, Q96PU5”: -0.032 ± 0.069. Next, “E3 ubiquitin-protein ligase NEDD4-like G198C, Q96PU5”: -0.171 ± 0.092. The substance “E3 ubiquitin-protein ligase NEDD4-like G198E, Q96PU5” had an abundance fitness of -0.691 ± 0.092. With “E3 ubiquitin-protein ligase NEDD4-like G198F, Q96PU5”, the abundance fitness was -0.15 ± 0.086. Under “E3 ubiquitin-protein ligase NEDD4-like G198H, Q96PU5” stands -0.197 ± 0.11; under “E3 ubiquitin-protein ligase NEDD4-like G198I, Q96PU5”, -0.765 ± 0.15. Next, “E3 ubiquitin-protein ligase NEDD4-like G198K, Q96PU5”: -0.103 ± 0.087. Next, “E3 ubiquitin-protein ligase NEDD4-like G198L, Q96PU5”: -0.209 ± 0.054; “E3 ubiquitin-protein ligase NEDD4-like G198M, Q96PU5”: -0.058 ± 0.092; “E3 ubiquitin-protein ligase NEDD4-like G198N, Q96PU5”: -0.095 ± 0.11. For the substance “E3 ubiquitin-protein ligase NEDD4-like G198P, Q96PU5”, the abundance fitness was -0.077 ± 0.074.

“E3 ubiquitin-protein ligase NEDD4-like G198Q, Q96PU5” gave an abundance fitness of -0.075 ± 0.06. “E3 ubiquitin-protein ligase NEDD4-like G198R, Q96PU5” returned an abundance fitness of -0.238 ± 0.06.

These data come from the Human Domainome abundance scans (Beltran et al. 2025).
